Assay [1] deals with T1, ABRAXANE® / albumin-bound paclitaxel (UniProt P02768 25-609, paclitaxel non-covalently bound).
T1 construct: Nanoparticle of many albumin molecules with paclitaxel, not a single polypeptide; also called ABX; Paclitaxel Albumin-stabilized Nanoparticle Formulation
Nature of the assay: flow cytometry of particles stained with goat anti-mouse IgG and PE.

In assay [2] the target is AB160 (nanoparticle of albumin-bound paclitaxel and bevacizumab, ratio about 10:4, average size 160 nm) (UniProt P02768). The description is as above.
In a further assay the target is VEGF (UniProt P15692). The assay is described as follows: co-incubation of VEGF with particles, particulate removed, free VEGF in supernatant measured by ELISA.
The target of assay [3] is T1, ABRAXANE® / albumin-bound paclitaxel. The assay is described as above.
Protocol: AB160 was prepared as described and 2000 μg/ml VEGF was added to the AB160 complex or ABX alone. The VEGF was incubated with the nanoparticles for 2 hours at room temperature. The suspension was spun at 6000 rpm for 15 minutes, supernatants were collected and free VEGF was measured by ELISA. Briefly, ELISA plates were coated with capture antibody overnight at 4° C. Plates were washed, blocked and standards and samples were added. After washing, detection antibody was added and plates were developed with substrate (R and D Systems, Minneapolis, MN). Absorbance was measured at 450 nm using a Versamax ELISA plate reader (Molecular Devices, Sunnyvale, CA). The concentration of unbound VEGF was determined with a standard curve from 0 to 2000 μg/ml.

Where only a bound is given, the exact number is not on record here.

As to goat anti-mouse IgG (antibody), the % positive was found to be 6.7% in assay [1] and 41.2% in assay [2].

“AB160 (nanoparticle of albumin-bound paclitaxel and bevacizumab, ratio about 10:4, average size 160 nm) (from UniProt P02768 25-609)”: the % VEGF unbound with VEGF was under 10%.

B1: VEGF (ligand, UniProt P15692-4 27-191, looked up)
chain: APMAEGGGQNHHEVVKFMDVYQRSYCHPIETLVDIFQEYPDEIEYIFKPSCVPLMRCGGCCNDEGLECVPTEESNITMQIMRIKPHQGQHIGEMSFLQHNKCECRPKKDRARQENPCGPCSERRKHLFVQDPQTCKCSCKNTDSRCKARQLELNERTCRCDKPRR
For B1, the binding result in assay [3] is recorded as “no binding (tested: 2000 µg/ml VEGF)”.
